Experimental findings from article PMC4077619, “Split luciferase complementation assay to detect regulated protein-protein interactions in rice protoplasts in a large-scale format” (Rice, 2014) are described below.

This test has as its target T1, CRLuc-H2B (Arabidopsis HISTONE 2B fused to the C-terminal fragment of Renilla luciferase) (Arabidopsis, UniProt Q9FFC0 1-145).
T1 construct: Arabidopsis HISTONE 2B (H2B), locus AT5G22880; cDNA inserted in a pDuEx vector; source: rice protoplasts, transformed (PEG) with a pDuEx vector (35S promoter), in cells
Description: split reporter (BiFC, NanoBiT); split Renilla luciferase complementation in living rice protoplasts, 96-well plate, W5 buffer, ViviRen substrate, RLU read 16 h after transformation; no hormone added (before the hormone or with W5 buffer only); H2A-H2B also tested with GA3 (Figure S1), RLU not increased. The following applies: partners not purified.

T1 sequence (Q9FFC0 whole entry, the tested form may be a part): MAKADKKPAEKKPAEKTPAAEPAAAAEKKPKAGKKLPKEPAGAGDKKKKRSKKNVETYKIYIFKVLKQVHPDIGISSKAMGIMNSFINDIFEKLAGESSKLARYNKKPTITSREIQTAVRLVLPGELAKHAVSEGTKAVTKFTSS

B1: NRLuc-H2A (Arabidopsis HISTONE 2A fused to the N-terminal fragment of Renilla luciferase) (natural protein)
chain: not shown
notes: Arabidopsis HISTONE 2A (H2A), locus AT4G27230; cDNA inserted in a pDuEx vector; source: rice protoplasts, transformed (PEG) with a pDuEx vector (35S promoter), in cells
B1: the “fold RLU over a non-interaction protein pair” value came to 10 fold and the “fold RLU over mock transformed protoplasts” value turned out to be 21 fold.
